Reference: publication PMC6853987, “ClpP protease activation results from the reorganization of the electrostatic interaction networks at the entrance pores” (Communications Biology, 2019)

B1: Escherichia coli ClpP (EcClpP), wild type (enzyme)
chain: not shown
notes: ClpP protease proteolytic subunit, E. coli; Crystallised with the small molecule ACP1-06; An unexplained density extends from S111 in the structure (possible covalent modification, not identified); also called E. coli ClpP; caseinolytic protease P; copies: 14
B2: Neisseria meningitidis ClpP (NmClpP), wild type (enzyme)
chain: not shown
notes: ClpP, N. meningitidis MC58; expressed full length with N-terminal His6 tag and TEV site; also called apo-NmClpP; WT NmClpP; not shown: His6, N-terminal, cleaved; copies: 14

Tests used:
[1] = biological target: the molecule itself; assay: crystal structure; EcClpP 10 mg/mL in 10 mM HEPES pH 7.5, 200 mM NaCl with 5 mM ACP1-06; well 51-63% MPD, 0.1 M sodium acetate pH 5.0, room temperature; self-association (tetradecamer)
[2] = biological target: the molecule itself; assay: crystal structure; apo-NmClpP 5 mg/mL in 25 mM TrisHCl pH 7.5, 100 mM KCl; well 0.2 M potassium thiocyanate, 40% MPD, room temperature; self-association (tetradecamer)

Protein | stoichiometry N [1] | stoichiometry N [2]
B1 | 14 | 
B2 |  | 14
